Measurements taken from article PMC9098913, “In vitro reconstitution of Escherichia coli divisome activation” (Nature Communications, 2022).
“And” between values parts separate entries of the source, which are not always exact repeats. Equal entries are not always repeated. Where two headings read alike, the source gives them in different places.

Assays:
FtsZ [1] = conditions: for FtsZ autocorrelation T: mean; for Autocorrelation Decay Tau: Fig. S2i, + FtsN
Text: To measure reorganization dynamics of FtsZ filaments, we used a temporal correlation analysis based on the Image CorrelationJ 1o plugin. We quantified the PCC between the first frame to subsequent frames with increasing time lag (∆t). The decrease in the PCC was plotted against ∆t to obtain autocorrelation curves. Slower decay indicates more persistent structures. The rates of decay were extracted by fitting monoexponential decay to the autocorrelation curves y=a⋅e^−b⋅t+k , where a is the starting point, b is the decay rate and k is the final offset. The half time of the monoexponential decay was calculated via the decay rate.

FtsA/Z co-filaments = type: biochemical, E. coli; conditions: Fig. 2g, mean
Protocol: By fitting an exponential function to the increase of the PCC with time, we were able to extract the corresponding recruitment rate (Fig. 2f, g).
Subsequently, the chamber was washed 6x with reaction buffer, to remove bulk peptide. To visualize colocalization with either FtsZ or FtsA, either a mix of FtsA and Alexa488-FtsZ or Cy3-FtsA and FtsZ was added. […] The time-lapse videos were recorded for 10 min after the addition, with one frame per 2 s.

FtsZ filaments = assay: Slope of linear regression FtsZ vs FtsA intensity (packing of FtsA below FtsZ filaments); type: biochemical, E. coli
Text: While fluorescence microscopy cannot resolve molecular assemblies of these small dimensions, a higher packing density of FtsA R286W below FtsZ filaments could explain the enhanced colocalization with FtsZ. To test this hypothesis, we analysed the pixel-by-pixel relationship between the fluorescence intensities of FtsZ and FtsA in dual-colour fluorescence time-lapse movies. […] At low FtsA concentrations, we found the slopes for both proteins to be similar.

[2] = SEC-MALS oligomeric state of FtsA in solution; type: physicochemical
Protocol: Light scattering was recorded on a miniDAWN light scattering device (Wyatt). Changes in the refractive index were used to define the peak area, which was used to obtain the molecular mass. The analysis of the data was performed with the ASTRA software (Wyatt).

FtsZ [3] = conditions: for Pearson correlation coefficient (PCC) FtsA/FtsZ: 1.25 µM FtsZ
Text: Time-lapse videos were first intensity-corrected and contrast-enhanced to avoid bleaching effects and simplify subsequent analysis. To remove contributions of X–Y drift, the videos were processed with the Linear Stack Alignment with SIFT plugin. […] Subsequently, regions of interest (ROIs) in the center of the stacks were chosen for colocalization analysis. The Pearson’s correlation coefficient (PCC) was quantified with the Image CorrelationJ 1o plugin. To extract information about the relative ratio of FtsZ/FtsA molecules (slope of linear regression), we also used the Image CorrelationJ 1o plugin. As an output, the plugin provides a scatterplot of FtsZ vs FtsA intensities, to which we fitted a linear slope y=k⋅x+d , where k is the slope and d the offset. The slope was used as an estimate for the ratio of FtsA molecules below FtsZ filaments[42].

FtsZ [4] = conditions: 1.25 µM FtsZ, FtsA 0.1–0.8 µM
Protocol: Additionally, the reaction chamber contained 4 mM ATP and 4 mM GTP, as well as a scavenging system to minimize photobleaching effects: 30 mM d-glucose, 0.050 mg ml^−1 Glucose Oxidase, 0.016 mg ml^−1 Catalase, 1 mM DTT and 1 mM Trolox. Prior addition of all components a corresponding buffer volume was removed from the chamber to obtain a total reaction volume of 100 µl. The dynamic protein pattern was monitored by time-lapse TIRF microscopy at one frame per 2 s and 50 ms exposure time.
Treadmilling dynamics, were quantified using an automated image analysis protocol previously developed by our group. To visualize colocalization of the co-treadmilling FtsZ & FtsA filaments, we used dual-colour videos obtained at an acquisition rate of one frame per 2 s. The two channels were aligned using FIJI’s 3TP align plugin. Both channels were then subjected to the image subtraction protocol and colocalization was measured as described above.

[5] = Single-molecule diffusion coefficient of FtsA on the membrane; conditions: for Diffusion Coefficient: single-particle tracking, n = 3
Protocol: First, we studied the behaviour of single FtsA proteins on the membrane surface.
After 5 min of incubation, single molecule time lapses were acquired every 125, 250, 500, and 1000 and 2000 ms, with an exposure time of 50 ms. Subsequently, the bulk concentration of FtsA was increased to 0.2/0.4/0.8 µM and time lapses were repeated as described above.
Single molecules of FtsA or FtsZ were tracked using the TrackMate plugin from ImageJ[43]. To obtain the residence time of FtsZ and FtsA, we performed a residence time analysis as described before[40],[47]. Shortly, single molecules were imaged at different acquisition rates (0.1–2 s) and the lifetime of the molecules was extracted from each data set. To account for photobleaching effect, the obtained lifetimes were plotted against the acquisition rate. […] Furthermore, we extracted the diffusion coefficient of FtsA single molecules at increasing concentrations. For this, we filtered the obtained data, by considering only trajectories which are present on the membrane for more than 0.4 s. […] Subsequently, the diffusion coefficient of FtsA molecules was estimated by fitting an MSD curve to each individual trajectory.
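Throughout, for Autocorrelation Decay Tau: FtsZ filament patterns imaged by time-lapse TIRF microscopy, one frame per 2 s, with ATP and GTP, Pearson correlation of first frame versus later frames, monoexponential fit, slower decay means persistent structures.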
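Throughout, for FtsZ autocorrelation T: FtsZ filament patterns imaged by time-lapse TIRF microscopy, one frame per 2 s, with ATP and GTP, Pearson correlation of first frame versus later frames, monoexponential fit, slower decay means persistent structures.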
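Throughout, for FtsZ autocorrelation: FtsZ filament patterns imaged by time-lapse TIRF microscopy, one frame per 2 s, with ATP and GTP, Pearson correlation of first frame versus later frames, monoexponential fit, slower decay means persistent structures.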

B1: FtsA R286W (protein)
chain: MIKATDRKLVVGLEIGTAKVAALVGEVLPDGMVNIIGVGSCPSRGMDKGGVNDLESVVKCVQRAIDQAELMADCQISSVYLALSGKHISCQNEIGMVPISEEEVTQEDVENVVHTAKSVRVRDEHRVLHVIPQEYAIDYQEGIKNPVGLSGVRMQAKVHLITCHNDMAKNIVKAVERCGLKVDQLIFAGLASSYSVLTEDERELGVCVVDIGGGTMDIAVYTGGALRHTKVIPYAGNVVTSDIAYAFGTPPSDAEAIKVRHGCALGSIVGKDESVEVPSVGGRPPWSLQRQTLAEVIEPRYTELLNLVNEEILQLQEKLRQQGVKHHLAAGIVLTGGAAQIEGLAACAQRVFHTQVRIGAPLNITGLTDYAQEPYYSTAVGLLHYGKESHLNGEAEVEKRVTASVGSWIKRLNSWLRKEF
modifications: Cy3 or Cy5 at the N-terminus in the labelled form (labelled CLEPTGG peptide conjugated to the 5xGly tag by sortagging); unlabelled protein also used; left off: TwinStrep-SUMO, N-terminal, cleaved | 5x
FtsZ autocorrelation (FtsZ [1]; 0.1 µM FtsA, Exp. 1): 160.44 s
FtsZ autocorrelation (FtsZ [1]; 0.1µM FtsA, Exp. 2): 218.46 s
FtsZ autocorrelation T (FtsZ [1]; 0.10 µM FtsA): 194.36 s
FtsZ autocorrelation (FtsZ [1]; 0.2 µM FtsA, Exp. 1): 153.77 s
FtsZ autocorrelation (FtsZ [1]; 0.2µM FtsA, Exp. 2): 78.66 s
FtsZ autocorrelation T (FtsZ [1]; 0.20 µM FtsA): 136.59 s
FtsZ autocorrelation (FtsZ [1]; 0.4 µM FtsA, Exp. 1): 331.53 s
FtsZ autocorrelation (FtsZ [1]; 0.4µM FtsA, Exp. 2): 146.15 s
FtsZ autocorrelation T (FtsZ [1]; 0.40 µM FtsA): 186.04 s
FtsZ autocorrelation (FtsZ [1]; 0.8 µM FtsA, Exp. 1): 113.86 s
FtsZ autocorrelation (FtsZ [1]; 0.8µM FtsA, Exp. 2): 144.33 s
Autocorrelation Decay Tau (FtsZ [1]; replicate 1): 4.55 min
Autocorrelation Decay Tau (FtsZ [1]; replicate 2): 8.41 min
Autocorrelation Decay Tau (FtsZ [1]; replicate 3): 7.40 min
Recruitment rate of FtsN to FtsZ filaments (FtsA/Z co-filaments; Concentration 0.10 µM): 2.71
Recruitment rate of FtsN to FtsZ filaments (FtsA/Z co-filaments; Concentration 0.20 µM): 3.32
Recruitment rate of FtsN to FtsZ filaments (FtsA/Z co-filaments; Concentration 0.40 µM): 2.53
Recruitment rate of FtsN to FtsZ filaments (FtsA/Z co-filaments; Concentration 0.80 µM): 2.36
Slope of linear regression FtsZ vs FtsA (FtsZ filaments; 0.1 µM FtsA, mean): 0.43
Slope of linear regression, mean of single experiment (FtsZ filaments; 0.1µM, replicate column 1): 0.46
Slope of linear regression, mean of single experiment (FtsZ filaments; 0.1µM, replicate column 2): 0.49
Slope of linear regression, mean of single experiment (FtsZ filaments; 0.1µM, replicate column 3): 0.39
Slope of linear regression FtsZ vs FtsA (FtsZ filaments; 0.2 µM FtsA, mean): 0.60
Slope of linear regression, mean of single experiment (FtsZ filaments; 0.2µM, replicate column 1): 0.53
Slope of linear regression, mean of single experiment (FtsZ filaments; 0.2µM, replicate column 2): 0.81
Slope of linear regression, mean of single experiment (FtsZ filaments; 0.2µM, replicate column 3): 0.58
Slope of linear regression, mean of single experiment (FtsZ filaments; 0.4µM, replicate column 1): 0.63
Slope of linear regression FtsZ vs FtsA (FtsZ filaments; 0.8 µM FtsA, mean): 0.72
Slope of linear regression FtsZ vs FtsA (FtsZ filaments; above 0.2 µM, remained constant): ~ 0.7
oligomeric state in solution [2]: monomeric in solution
PCC FtsZ/FtsA (FtsZ [3]; 0.1µM FtsA, Exp. 2): 0.41
PCC FtsZ/FtsA (FtsZ [3]; 0.1µM FtsA, replicate 1 (row printed 'goo')): 0.73
PCC FtsZ/FtsA (FtsZ [3]; 0.2µM FtsA, Exp. 2): 0.77
PCC FtsZ/FtsA (FtsZ [3]; 0.2µM FtsA, replicate 1 (row printed 'goo')): 0.89
Pearson correlation coefficient (PCC) FtsA/FtsZ (FtsZ [3]; 0.4 µM FtsA, mean ± s.d., WT vs R286W p-value 1.28 × 10^−5): 0.84 ± 0.05
PCC FtsZ/FtsA (FtsZ [3]; 0.4µM FtsA, Exp. 2): 0.83
PCC FtsZ/FtsA (FtsZ [3]; 0.4µM FtsA, replicate 1 (row printed 'goo')): 0.89
PCC FtsZ/FtsA (FtsZ [3]; 0.8µM FtsA, Exp. 2): 0.83
PCC FtsZ/FtsA (FtsZ [3]; 0.8µM FtsA, replicate 1 (row printed 'goo')): 0.88
Pearson correlation coefficient (PCC) FtsA/FtsZ (FtsZ [3]; all concentrations tested (0.1–0.8 µM)): around 0.8
effect on FtsZ treadmilling velocity (FtsZ [4]): could not detect a difference
Single Molecule Diffusion Constant ([5]; 0.1 µM FtsA, Exp. 1): 0.4979 µm2/s
Single Molecule Diffusion Constant ([5]; 0.1µM FtsA, Exp. 2): 0.3931 µm2/s
Single Molecule Diffusion Constant ([5]; 0.1 µM FtsA, Exp. 3): 0.3496 µm2/s
Diffusion Coefficient ([5]; 0.1 µM FtsA): 0.42 ± 0.06 µm^2/s
Single Molecule Diffusion Constant ([5]; 0.2 µM FtsA, Exp. 1): 0.1893 µm2/s
Single Molecule Diffusion Constant ([5]; 0.2µM FtsA, Exp. 2): 0.1662 µm2/s
Single Molecule Diffusion Constant ([5]; 0.2 µM FtsA, Exp. 3): 0.2033 µm2/s
Single Molecule Diffusion Constant ([5]; 0.4 µM FtsA, Exp. 1): 0.1363 µm2/s
Single Molecule Diffusion Constant ([5]; 0.4µM FtsA, Exp. 2): 0.0718 µm2/s
Single Molecule Diffusion Constant ([5]; 0.4 µM FtsA, Exp. 3): 0.1951 µm2/s
Single Molecule Diffusion Constant ([5]; 0.8 µM FtsA, Exp. 1): 0.0600 µm2/s
Single Molecule Diffusion Constant ([5]; 0.8µM FtsA, Exp. 2): 0.0636 µm2/s
Single Molecule Diffusion Constant ([5]; 0.8 µM FtsA, Exp. 3): 0.0391 µm2/s
Single Molecule Diffusion Constant, mean ([5]; 0.8 µM FtsA, mean of Exp. 1-3, n = 3, Fig. 3b): 0.054 µm2/s and 0.0542 µm2/s
Diffusion Coefficient ([5]; 0.8 µM FtsA): 0.05 ± 0.01 µm^2/s
